Experimental data reported in paper PMC13351892, “Tool antibody fragments reveal multiple conformations of the rhodopsin-Gi signaling complex” (Biophysical Journal, 2025).

Target: T1, human Gαi1 (human, UniProt P63096)
T1 construct: also called Gαi subunit; source: prepared as described (11)
Experiment: cryo-EM structure; Rho-Gαiβγ-scFv16-Fab79, mixed 1:1.4:1.4 in 0.02% LMNG, purified by SEC; two conformations at 5.2 and 5.9 Å
Conditions: both partners purified

T1 sequence (P63096 whole entry): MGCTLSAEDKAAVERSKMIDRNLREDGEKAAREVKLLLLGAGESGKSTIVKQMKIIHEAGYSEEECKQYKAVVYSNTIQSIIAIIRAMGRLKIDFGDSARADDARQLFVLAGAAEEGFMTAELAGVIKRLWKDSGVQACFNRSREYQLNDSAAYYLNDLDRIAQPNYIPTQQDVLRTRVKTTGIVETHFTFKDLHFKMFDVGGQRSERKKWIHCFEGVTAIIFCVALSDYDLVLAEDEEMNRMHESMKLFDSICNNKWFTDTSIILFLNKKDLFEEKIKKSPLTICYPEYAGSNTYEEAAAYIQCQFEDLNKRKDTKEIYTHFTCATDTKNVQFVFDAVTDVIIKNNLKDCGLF

- binding result: binds
B1: Fab79 (Fab, V domains shown)
VH: EVQLVESGGGLVKPGGSLKLSCAASGFTFSSYAMSWVRQTPEKRLEWVATISSRGLYTYFPDSMKGRFTISRDNAKNTLSLQMSSLRSEDTAMYYCLRGGGYDADYWGQGTTLTVSS
VL: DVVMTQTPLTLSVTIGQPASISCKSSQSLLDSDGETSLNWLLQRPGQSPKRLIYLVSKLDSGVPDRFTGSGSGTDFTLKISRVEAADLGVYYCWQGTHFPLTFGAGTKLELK
notes: Fab79 heavy chain; also in the deposited models PDB 8P13 and 8P15; Fab79 light chain; source: prepared as described (11); from mice immunized with the purified Rho-Gαiβγ complex
